Reference: patent US20190184015A1, “IRRADIATION TREATMENT OF NEUROLOGICAL SENSATIONS BY PHOTOABLATION” (European Molecular Biology Laboratory, priority 2016, published 2019)
Entries after “also recorded” stand apart in the source; their conditions may differ. One block for each molecule: values may come before it.

What was measured:
[1] = molecular target: native TrkB receptors in DRG neurons (mouse) (mouse) (UniProt P15209); assay: Qdot 655 conjugated ligand on dissociated DRG of TrkBCreERT2::Rosa26RFP mice, counting of labelled cells
Chain of native TrkB receptors in DRG neurons (mouse) (mouse) (P15209 32-821): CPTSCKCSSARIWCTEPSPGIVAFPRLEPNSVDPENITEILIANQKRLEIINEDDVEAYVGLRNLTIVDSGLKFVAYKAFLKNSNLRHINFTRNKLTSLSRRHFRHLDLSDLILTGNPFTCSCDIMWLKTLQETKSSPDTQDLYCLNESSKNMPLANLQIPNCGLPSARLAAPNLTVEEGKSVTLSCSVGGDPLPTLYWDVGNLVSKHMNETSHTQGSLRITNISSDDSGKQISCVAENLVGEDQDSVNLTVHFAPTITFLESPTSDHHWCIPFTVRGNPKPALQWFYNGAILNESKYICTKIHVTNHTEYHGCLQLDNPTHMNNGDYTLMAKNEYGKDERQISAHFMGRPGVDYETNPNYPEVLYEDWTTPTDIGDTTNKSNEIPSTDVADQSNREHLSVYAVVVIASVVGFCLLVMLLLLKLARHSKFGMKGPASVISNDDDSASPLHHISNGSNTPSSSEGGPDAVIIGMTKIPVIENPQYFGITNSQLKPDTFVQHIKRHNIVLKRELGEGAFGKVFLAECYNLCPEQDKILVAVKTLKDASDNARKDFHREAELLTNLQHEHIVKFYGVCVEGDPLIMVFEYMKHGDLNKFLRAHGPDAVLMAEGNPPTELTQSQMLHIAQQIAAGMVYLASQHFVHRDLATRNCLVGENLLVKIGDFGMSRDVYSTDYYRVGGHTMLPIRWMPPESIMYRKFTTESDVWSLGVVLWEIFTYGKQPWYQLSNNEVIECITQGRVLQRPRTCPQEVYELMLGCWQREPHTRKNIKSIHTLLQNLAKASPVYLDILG

[2] = tested on: HEK293T cells expressing TrkB/p75; assay: BDNF^SNAP-IR700 photoablation of HEK293T cells (propidium iodide); assay type: cell-based
Excerpt: In initial experiments BDNF^SNAP-IR700 was applied to HEK293T cells expressing TrkB/p75 and cell death assayed following near infrared illumination.

[3] = tested on: TrkB+ neurons; assay: Spared Nerve Injury (SNI) model, photoablation in the paw; assay type: in vivo, mouse
Excerpt: Next neuropathic pain was induced in mice using the Spared Nerve Injury (SNI) model. Control mice developed a profound mechanical hypersensitivity in the sural nerve territory of the paw to both von Frey filaments and dynamic brush stimuli (FIGS. 6D and E). […] The inventors performed further experiments in TrkBCreERT2::Rosa26ChR2 mice to optogenetically activate these neurons. Three days after injury it was observed that selective stimulation of TrkB neurons with light evoked behavior indicative of pain. This was evident as a prolonged paw withdrawal from the stimulation, lifting of the paw and licking of the illuminated area (FIG. 6F) that continued for several minutes after light application. Such behavior persisted throughout the 2 weeks observation period and was never observed in control mice (FIG. 6F).
(§1) The inventors next sought to assess the therapeutic potential of this approach by investigating the effects of BDNF^SNAP-IR700 mediated photoablation in wildtype mice with neuropathic pain. Upon establishment of robust mechanical allodynia three days after SNI, a range of concentrations of BDNF^SNAP-IR700 was injected into the ipsilateral paw of injured mice and the skin illuminated with different light intensities. […] It was examined whether such pronounced effects were also evident in other types of neuropathic pain. […] To determine the selectivity of this approach, the inventors further assessed the effects of BDNF^SNAP-IR700 mediated photoablation on behavioral responses under basal conditions. No deficits in sensitivity to cold, heat, or pinprick upon treatment were observed (FIG. 8f to h). Responses to cotton swab were also unaffected by photoablation (FIG. 3i), perhaps because the skin area that is stimulated in this test extends beyond the zone of illumination.

[4] = tested on: TrkB+ neurons; assay: Streptozotocin model of painful diabetic neuropathy; assay type: in vivo, mouse
Description: as §1

[5] = tested on: TrkB+ neurons; assay: Paclitaxel model of chemotherapy induced neuropathic pain; assay type: in vivo, mouse
Description: as §1

[6] = tested on: baseline sensory behavior; assay: Behavioral responses under basal conditions after photoablation in the paw; assay type: in vivo, mouse
Description: as §1

[7] = tested on: TrkB positive afferents; assay: Innervation of skin and DRG neuron counts after photoablation; assay type: in vivo, mouse
Excerpt: Prior to photoablation, TrkB positive lanceolate endings were detected around hair follicles (FIG. 9a) and innervating Meissner corpuscles in the plantar surface of the paw. […] It was further investigated whether loss of TrkB^CreERT2 neurons was also evident at the level of the cell soma by analyzing the number of TrkB^CreERT2 positive neurons in the DRG.

[8] = tested on: TrkB sensory fibers; assay: Behavioral sensitivity after photoablation in the sciatic nerve; assay type: in vivo, mouse
[9] = tested on: skin cell types; details: mouse, in vivo
[10] = molecular target: T1, IL31 Receptor A (IL31RA) (Mus musculus, UniProt Q8K5B1); assay: In vivo skin labelling after intradermal injection; details: wildtype mice; intradermal injection into back skin
T1 construct: from tissue; host or cells: mouse back skin (nape of the neck), in vivo
T1 sequence (Q8K5B1 19-716): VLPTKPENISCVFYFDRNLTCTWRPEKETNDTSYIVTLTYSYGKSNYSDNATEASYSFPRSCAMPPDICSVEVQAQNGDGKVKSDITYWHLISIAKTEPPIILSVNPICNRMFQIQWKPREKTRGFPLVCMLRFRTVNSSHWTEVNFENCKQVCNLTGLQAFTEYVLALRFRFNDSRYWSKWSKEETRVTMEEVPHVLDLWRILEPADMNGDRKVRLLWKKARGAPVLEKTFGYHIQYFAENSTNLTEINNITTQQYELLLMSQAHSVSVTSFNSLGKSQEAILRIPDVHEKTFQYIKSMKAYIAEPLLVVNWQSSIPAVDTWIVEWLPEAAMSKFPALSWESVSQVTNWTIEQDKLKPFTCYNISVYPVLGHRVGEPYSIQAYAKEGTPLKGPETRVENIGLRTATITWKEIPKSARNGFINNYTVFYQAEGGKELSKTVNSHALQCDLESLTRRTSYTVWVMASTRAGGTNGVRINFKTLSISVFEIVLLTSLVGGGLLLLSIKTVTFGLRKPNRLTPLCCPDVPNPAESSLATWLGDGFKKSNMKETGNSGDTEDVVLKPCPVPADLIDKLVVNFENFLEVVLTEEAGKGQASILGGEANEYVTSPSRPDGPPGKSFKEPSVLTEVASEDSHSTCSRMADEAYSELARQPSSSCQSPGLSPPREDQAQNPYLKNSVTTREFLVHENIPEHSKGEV
T1 sequence (O70458 24-971 partner): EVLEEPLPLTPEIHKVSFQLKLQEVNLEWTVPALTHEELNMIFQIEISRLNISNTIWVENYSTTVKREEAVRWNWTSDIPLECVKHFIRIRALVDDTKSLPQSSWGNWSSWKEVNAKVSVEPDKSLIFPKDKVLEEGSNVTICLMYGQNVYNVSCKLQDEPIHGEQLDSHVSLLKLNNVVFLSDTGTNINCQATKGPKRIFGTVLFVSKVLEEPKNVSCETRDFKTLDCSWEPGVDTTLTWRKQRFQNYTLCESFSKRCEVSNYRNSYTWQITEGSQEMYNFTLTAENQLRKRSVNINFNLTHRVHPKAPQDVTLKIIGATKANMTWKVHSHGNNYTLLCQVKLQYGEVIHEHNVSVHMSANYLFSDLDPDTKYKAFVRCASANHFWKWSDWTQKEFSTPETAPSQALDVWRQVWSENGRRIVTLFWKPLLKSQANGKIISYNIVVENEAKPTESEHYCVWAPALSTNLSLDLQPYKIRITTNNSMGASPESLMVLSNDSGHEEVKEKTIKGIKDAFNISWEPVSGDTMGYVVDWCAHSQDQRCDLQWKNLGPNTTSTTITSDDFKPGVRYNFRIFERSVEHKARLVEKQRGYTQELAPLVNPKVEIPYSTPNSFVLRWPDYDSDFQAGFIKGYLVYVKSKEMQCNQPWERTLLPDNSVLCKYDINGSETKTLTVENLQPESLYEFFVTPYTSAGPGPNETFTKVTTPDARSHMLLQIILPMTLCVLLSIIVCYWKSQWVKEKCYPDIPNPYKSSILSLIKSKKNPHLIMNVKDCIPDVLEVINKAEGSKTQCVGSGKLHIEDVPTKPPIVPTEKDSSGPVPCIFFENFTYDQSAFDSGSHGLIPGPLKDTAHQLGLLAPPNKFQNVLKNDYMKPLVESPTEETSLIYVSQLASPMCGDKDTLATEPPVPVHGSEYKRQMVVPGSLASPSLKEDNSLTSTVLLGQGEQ
Excerpt: The inventors produced recombinant IL31 with a C-terminal fusion of SNAP (IL31^SNAP) in E. Coli. […] To determine whether IL31^SNAP was functional the inventors first performed binding studies in primary keratinocyte cultures. IL31^SNAP was labelled in vitro with BG-Surface549 and applied to keratinocytes from wildtype or IL31 Receptor A (IL31RA) knockout mice (IL31RA^−/−). […] The inventors further examined IL31^SNAP labelling in vivo by injecting IL31^SNAP-Surface549 intradermally into the back skin of wild type and IL31RA^−/− mice. […] Finally, the inventors determined whether IL31^SNAP was active by quantifying scratching behavior in mice upon intradermal injection. […] Thus the IL31^SNAP retains the functional properties of native IL31.
For skin labelling, intradermal injection of 5 μM IL31^SNAP coupled with 5 μM BG549surf was performed in the nape of the neck. After […] (30 min) skin was collected, fix in PFA 4% overnight, OCT-embedded and cryo-sectioned (25 μm).

[11] = SNI mice, injection into ipsilateral paw and illumination
[12] = injection into sciatic nerve, nerve illuminated

overlap between BDNF^SNAP and TrkBCreERT2 positive cells [1]: > 95%
Molecule: BDNF^SNAP (ligand)

B1: BDNF^SNAP-IR700: BDNF^SNAP conjugated in vitro to benzylguanine modified IRDye®700 DX phthalocyanine (conjugate, UniProt P23560 19-247, looked up)
Neurotrophic factor BDNF …: APMKEANIRGQGGLAYPGVRTHGTLESVNGPKAGSRGLTSLADTFEHVIEELLDEDQKVRPNEENNKDADLYTSRVMLSSQVPLEPPLLFLLEEYKNYLDAANMSMRVRRHSDPARRGELSVCDSISEWVTAADKKTAVDMSGGTVTVLEKVPVSKGQLKQYFYETKCNPMGYTKEGCRGIDKRHWNSQCRTTQSYVRALTMDSKKRIGWRFIRIDTSCVCTLTIKRGR
modifications: C-terminal SNAP tag; IRDye700DX conjugate
notes: BDNF^SNAP conjugated in vitro to benzylguanine modified IRDye®700 DX phthalocyanine
cell death after near infrared illumination ([2]; HEK293T cells expressing TrkB/p75, 24 hours after brief illumination): substantial cell death
cell death after near infrared illumination ([2]; mock transfected HEK293T cells): not evident
cotton swab evoked allodynia [3, 11]: concentration and illumination dependent rescue; also recorded: reversed by photoablation
dynamic brush evoked allodynia [3, 11]: concentration and illumination dependent rescue; also recorded: dose dependent reversal of mechanical hypersensitivity
von Frey withdrawal thresholds [3, 11]: concentration and illumination dependent rescue; also recorded: dose dependent reversal of mechanical hypersensitivity
persistence of rescue ([3]; after a single treatment regime): more than 3 weeks
return to injury levels [4]: ≤ 20 days
time of peak reversal [4]: around 10 days post treatment
mechanical hypersensitivity ([4]; 5 μM at 200 J/cm^2): marked reversal of mechanical hypersensitivity; also recorded: reverses mechanical allodynia
return to injury levels [5]: ≤ 20 days
time of peak reversal [5]: around 10 days post treatment
mechanical hypersensitivity ([5]; 5 μM at 200 J/cm^2): marked reversal of mechanical hypersensitivity; also recorded: reverses mechanical allodynia
responses to cotton swab [6]: unaffected; also recorded: does not affect baseline sensory behavior responses
sensitivity to cold (acetone drop test) [6]: No deficits; also recorded: does not affect baseline sensory behavior responses
sensitivity to heat (hot plate test) [6]: No deficits; also recorded: does not affect baseline sensory behavior responses
sensitivity to pinprick [6]: No deficits; also recorded: does not affect baseline sensory behavior responses
innervation of hairy and glabrous skin ([7]; 7 days after photoablation (13 days post-SNI)): selective loss of TrkB fibers but persistent innervation by PGP9.5 fibers; also recorded: Substantial loss of TrkB^CreERT2 positive afferents (red), but persistence of other fibers
proportion of TrkB neurons in the DRG ([7]; 10 days after photoablation): No differences in the proportion of TrkB neurons
innervation of skin by TrkB positive fibers ([7]; 24 days post-photoablation): TrkB positive fibers were again seen innervating their appropriate end organs; also recorded: Reinnervation of skin by TrkB^CreERT2 afferents
light driven nocifensive behavior ([8]; TrkB^CreERT2::Rosa26^ChR2 mice with SNI, sciatic nerve photoablation): significant reduction in light driven nocifensive behavior; also recorded: reduced by nerve photoablation
behavioral response to cooling (acetone drop test) ([8]; injection into sciatic nerve at mid-thigh level, nerve illuminated): normal; also recorded: not altered by nerve photoablation
behavioral response to heating (radiant heat test) [8, 12]: normal; also recorded: not altered by nerve photoablation
behavioral response to pinprick [8, 12]: normal; also recorded: not altered by nerve photoablation
sensitivity to cotton swab [8, 12]: reduced by nerve photoablation
number of CD34 positive cells in the skin [9]: significantly reduced the number of CD34 positive cells
numbers of Merkel cells, keratinocytes, dendritic and dermal antigen presenting cells in the skin [9]: did not alter their numbers

fluorescent signal in cells in skin sections [10]: fluorescent signal was observed
B2: IL31^SNAP-Surface549: IL31^SNAP labelled in vitro with BG-Surface549 (conjugate)
chain: TCSLSFGAPISKEDLRTTIDLLKQESQDLYNNYSIKQASGMSADESIQLPCFSLDREALTNISVIIAHLEKVKVLSENTVDTSWVIRWLTNISCFNPLNLNISVPGNTDESYDCKVFVLTVLKQFSNCMAELQAKDNTTC
modifications: left off: small tags and cut ends
